Our source for the stoichiometry N values is paper doi:10.1101/2024.07.03.601791.

For this assay, the target named is Kapβ2 Δloop (human) (UniProt Q92973). The experiment in a line: AUC.
Sequence of Kapβ2 Δloop (human) (Q92973 9-898, stated change not applied): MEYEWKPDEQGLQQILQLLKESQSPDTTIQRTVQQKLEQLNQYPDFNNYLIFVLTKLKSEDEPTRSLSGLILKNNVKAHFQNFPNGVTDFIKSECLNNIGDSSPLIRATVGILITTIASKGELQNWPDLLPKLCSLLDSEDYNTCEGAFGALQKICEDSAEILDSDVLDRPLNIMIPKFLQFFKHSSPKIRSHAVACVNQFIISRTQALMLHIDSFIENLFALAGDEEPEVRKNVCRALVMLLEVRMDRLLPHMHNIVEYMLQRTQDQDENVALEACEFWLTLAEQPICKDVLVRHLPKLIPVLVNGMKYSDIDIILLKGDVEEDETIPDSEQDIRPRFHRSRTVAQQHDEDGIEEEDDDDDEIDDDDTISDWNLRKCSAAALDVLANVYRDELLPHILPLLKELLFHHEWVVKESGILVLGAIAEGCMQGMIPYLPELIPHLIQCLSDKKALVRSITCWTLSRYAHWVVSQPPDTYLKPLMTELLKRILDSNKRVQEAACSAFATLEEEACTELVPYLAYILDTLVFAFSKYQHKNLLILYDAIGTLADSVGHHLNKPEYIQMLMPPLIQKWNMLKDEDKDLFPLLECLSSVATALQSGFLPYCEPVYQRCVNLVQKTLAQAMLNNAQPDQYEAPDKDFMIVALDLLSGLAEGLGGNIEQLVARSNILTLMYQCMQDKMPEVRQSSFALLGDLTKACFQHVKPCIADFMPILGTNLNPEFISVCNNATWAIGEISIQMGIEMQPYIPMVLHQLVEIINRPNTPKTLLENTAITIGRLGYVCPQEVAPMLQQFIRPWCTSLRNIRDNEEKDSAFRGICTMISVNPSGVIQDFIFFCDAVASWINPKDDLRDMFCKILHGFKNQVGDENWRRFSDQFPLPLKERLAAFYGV

B1: maltose-binding protein (MBP)-PR18 (peptide)
chain: PRPRPRPRPRPRPRPRPRPRPRPRPRPRPRPRPRPR
A word on the stoichiometry N: it is the number of molecules, sites or subunits per partner or assembly. For the molecule B1, the stoichiometry N was found to be 1.
